Columns and labels:
Experiment in all cases: ELISA-type assay, F3 module coated
[1] = target: T1, Recombinant fibronectin module ^1F3 (Homo sapiens (Human), UniProt P02751 608-700)
T1 construct: Expressed with N-terminal His-tag, purified by Ni-NTA and ion-exchange chromatography; also called ^1F3 module

[2] = target: T2, Recombinant fibronectin modules ^1-2F3 (Homo sapiens (Human), UniProt P02751 608-809)
T2 construct: Expressed with N-terminal His-tag

[3] = target: Recombinant fibronectin module ^3F3 (Homo sapiens (Human), UniProt P02751 810-900)
Chain of Recombinant fibronectin module ^3F3 (P02751 other isoform, or with tags, fused parts or gaps limits assumed): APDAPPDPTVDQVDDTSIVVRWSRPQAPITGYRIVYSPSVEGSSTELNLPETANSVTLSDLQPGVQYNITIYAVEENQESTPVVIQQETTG

Measured: binding result

T1 sequence (P02751 608-700 limits assumed): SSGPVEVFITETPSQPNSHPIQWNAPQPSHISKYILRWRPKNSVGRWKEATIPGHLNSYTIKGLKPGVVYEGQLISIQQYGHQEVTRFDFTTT
T2 sequence (P02751 608-809 limits assumed): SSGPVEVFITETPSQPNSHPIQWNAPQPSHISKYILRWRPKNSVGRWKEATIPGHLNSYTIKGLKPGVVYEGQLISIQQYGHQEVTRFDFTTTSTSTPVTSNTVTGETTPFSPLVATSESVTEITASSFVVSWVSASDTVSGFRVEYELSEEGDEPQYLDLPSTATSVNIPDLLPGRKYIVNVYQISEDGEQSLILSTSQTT

B1: FnbpA peptide D3 (S. aureus fibronectin-binding peptide) (peptide)
peptide: GFNKHTEIIEEDTNKDKPSYQFGGHNSVDFEEDTLPK
notes: domain: D3; also called peptide D3 from FnbpA; D3 fragment of S. aureus FnbpA
no binding: [1] | [2] | [3]

Reference: patent US20090170751A1 (published 2009)
